Data set [1] relates to TRX-9S-S2 (synthetic construct (Selaginella-type S motif consensus)). Briefly: fluorescence polarization. To be noted: HRP: 50 mM Tris pH 8, 150 mM NaCl, 1 mM bME, 50 ug/ml BSA, 3 ug/ml yeast RNA, 0.5% heparin, 2 nM RNA; ITC (25 C) and FP: Tris pH 8, 200 mM KCl, 5% glycerol …. On the technique in general: Polarisation of emitted light reports the rotation of a fluorescent probe.

Data set [2] concerns TRX-9P-S2 (synthetic construct). Briefly: HRP pulldown. To be noted: HRP: 50 mM Tris pH 8, 150 mM NaCl, 1 mM bME, 50 ug/ml BSA, 3 ug/ml yeast RNA, 0.5% heparin, 2 nM RNA; ITC (25 C) and FP: Tris pH 8, 200 mM KCl, 5% glycerol ….
The test system of data set [3] is GFP-9S motif 4 TD (synthetic construct). Briefly: HRP pulldown. To be noted: HRP: 50 mM Tris pH 8, 150 mM NaCl, 1 mM bME, 50 ug/ml BSA, 3 ug/ml yeast RNA, 0.5% heparin, 2 nM RNA; ITC (25 C) and FP: Tris pH 8, 200 mM KCl, 5% glycerol ….
For data set [4], the system named is TRX-9S-S2 (synthetic construct (Selaginella-type S motif consensus)). Briefly: HRP pulldown. The conditions noted are these: HRP: 50 mM Tris pH 8, 150 mM NaCl, 1 mM bME, 50 ug/ml BSA, 3 ug/ml yeast RNA, 0.5% heparin, 2 nM RNA; ITC (25 C) and FP: Tris pH 8, 200 mM KCl, 5% glycerol ….
The subject of data set [5] is GFP-9S motif 4 KD (synthetic construct). Put plainly: HRP pulldown. The conditions noted are these: lysate, HRP: 50 mM Tris pH 8, 150 mM NaCl, 1 mM bME, 50 ug/ml BSA, 3 ug/ml yeast RNA, 0.5% heparin, 2 nM RNA, ITC (25 C) and FP: Tris pH 8, 200 mM KCl, 5% glycerol ….
Data set [6] concerns GFP-9S (synthetic construct). Put plainly: HRP pulldown. The conditions noted are these: HRP: 50 mM Tris pH 8, 150 mM NaCl, 1 mM bME, 50 ug/ml BSA, 3 ug/ml yeast RNA, 0.5% heparin, 2 nM RNA; ITC (25 C) and FP: Tris pH 8, 200 mM KCl, 5% glycerol ….
The test system of data set [7] is GFP-9S motif 4 ID (synthetic construct). Briefly: HRP pulldown. The conditions noted are these: lysate; HRP: 50 mM Tris pH 8, 150 mM NaCl, 1 mM bME, 50 ug/ml BSA, 3 ug/ml yeast RNA, 0.5% heparin, 2 nM RNA; ITC (25 C) and FP: Tris pH 8, 200 mM KCl, 5% glycerol ….
The subject of data set [8] is TRX-AviTag-9S-S2 (synthetic construct). Briefly: HRP pulldown. The conditions noted are these: HRP: 50 mM Tris pH 8, 150 mM NaCl, 1 mM bME, 50 ug/ml BSA, 3 ug/ml yeast RNA, 0.5% heparin, 2 nM RNA; ITC (25 C) and FP: Tris pH 8, 200 mM KCl, 5% glycerol ….
The subject of data set [9] is GFP-9S motif 4 LD (synthetic construct). Put plainly: HRP pulldown. To be noted: lysate, HRP: 50 mM Tris pH 8, 150 mM NaCl, 1 mM bME, 50 ug/ml BSA, 3 ug/ml yeast RNA, 0.5% heparin, 2 nM RNA, ITC (25 C) and FP: Tris pH 8, 200 mM KCl, 5% glycerol ….
Data set [10] has as its system TRX-9S-E2 (synthetic construct). Briefly: MST. To be noted: HRP: 50 mM Tris pH 8, 150 mM NaCl, 1 mM bME, 50 ug/ml BSA, 3 ug/ml yeast RNA, 0.5% heparin, 2 nM RNA; ITC (25 C) and FP: Tris pH 8, 200 mM KCl, 5% glycerol ….
The subject of data set [11] is TRX-9P-S2 (synthetic construct). Briefly: ITC. The conditions noted are these: HRP: 50 mM Tris pH 8, 150 mM NaCl, 1 mM bME, 50 ug/ml BSA, 3 ug/ml yeast RNA, 0.5% heparin, 2 nM RNA; ITC (25 C) and FP: Tris pH 8, 200 mM KCl, 5% glycerol ….
The test system of data set [12] is TRX-9S-S2 (synthetic construct (Selaginella-type S motif consensus)). Put plainly: ITC. The conditions noted are these: HRP: 50 mM Tris pH 8, 150 mM NaCl, 1 mM bME, 50 ug/ml BSA, 3 ug/ml yeast RNA, 0.5% heparin, 2 nM RNA; ITC (25 C) and FP: Tris pH 8, 200 mM KCl, 5% glycerol ….
Data set [13] deals with T1, 9S-S2 PPR (synthetic construct).
T1 chain: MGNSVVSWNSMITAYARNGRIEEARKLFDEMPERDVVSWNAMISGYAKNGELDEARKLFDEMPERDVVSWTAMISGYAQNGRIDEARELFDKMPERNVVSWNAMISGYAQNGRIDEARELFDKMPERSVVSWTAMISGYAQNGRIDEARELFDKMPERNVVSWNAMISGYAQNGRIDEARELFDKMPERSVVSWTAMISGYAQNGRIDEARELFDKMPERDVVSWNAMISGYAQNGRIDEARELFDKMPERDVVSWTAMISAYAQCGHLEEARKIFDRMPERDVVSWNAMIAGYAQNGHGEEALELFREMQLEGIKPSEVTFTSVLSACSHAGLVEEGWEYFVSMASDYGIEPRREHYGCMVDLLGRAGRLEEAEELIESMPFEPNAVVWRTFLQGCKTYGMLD
Briefly: fluorescence polarization; HRP: 50 mM Tris pH 8, 150 mM NaCl, 1 mM beta-mercaptoethanol, 50 ug/ml BSA, 3 ug/ml yeast RNA, 0.5% heparin; ITC and FP: Tris pH 8, 200 mM KCl, 5% glycerol; MST: 50 mM Tris pH 8, 200 mM NaCl, 1 mM DTT, BSA, heparin, 0.05% Tween 20. To be noted: protein: recombinant; tags: N-terminal TRX-His; label: fluorescein.

Data set [14] addresses T1, 9S-S2 PPR. Briefly: high-throughput RNA pulldown on Ni-NTA beads; HRP: 50 mM Tris pH 8, 150 mM NaCl, 1 mM beta-mercaptoethanol, 50 ug/ml BSA, 3 ug/ml yeast RNA, 0.5% heparin; ITC and FP: Tris pH 8, 200 mM KCl, 5% glycerol; MST: 50 mM Tris pH 8, 200 mM NaCl, 1 mM DTT, BSA, heparin, 0.05% Tween 20. To be noted: protein: recombinant; tags: N-terminal TRX-His; label: 5' Cy5.

Data set [15] concerns the target T2, 9P-S2 (synthetic construct).
T2 chain: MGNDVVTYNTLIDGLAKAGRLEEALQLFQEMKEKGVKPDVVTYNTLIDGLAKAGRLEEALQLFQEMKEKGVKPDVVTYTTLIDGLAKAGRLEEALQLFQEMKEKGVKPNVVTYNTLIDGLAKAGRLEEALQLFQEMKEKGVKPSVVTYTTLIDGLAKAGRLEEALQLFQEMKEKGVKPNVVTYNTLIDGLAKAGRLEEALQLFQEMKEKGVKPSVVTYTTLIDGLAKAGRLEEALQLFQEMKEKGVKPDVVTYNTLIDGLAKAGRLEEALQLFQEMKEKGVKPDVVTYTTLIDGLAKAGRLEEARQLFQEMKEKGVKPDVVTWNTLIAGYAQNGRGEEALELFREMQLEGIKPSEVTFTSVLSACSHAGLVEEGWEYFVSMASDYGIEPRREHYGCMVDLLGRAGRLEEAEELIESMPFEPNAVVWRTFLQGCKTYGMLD
Briefly: isothermal titration calorimetry; HRP: 50 mM Tris pH 8, 150 mM NaCl, 1 mM beta-mercaptoethanol, 50 ug/ml BSA, 3 ug/ml yeast RNA, 0.5% heparin; ITC and FP: Tris pH 8, 200 mM KCl, 5% glycerol; MST: 50 mM Tris pH 8, 200 mM NaCl, 1 mM DTT, BSA, heparin, 0.05% Tween 20. To be noted: protein: recombinant; tags: N-terminal TRX-His. On the technique in general: ITC needs no label: the signal is the heat of the interaction.

Data set [16] addresses T1, 9S-S2 PPR. Described as above. To be noted: protein: recombinant; tags: N-terminal TRX-His.
The mark [17] stands for this setting: Kd above 200 nM called unreliable.

One may read the Kd as the equilibrium constant for the complex coming apart.

In data set [1], AUUACACGUG [rpoA (FP)] gave a dissociation constant (Kd) of 7.6 nM.

As to AUUACACGUGA [Cy5-rpoA], the Kd in data set [2] was 68 nM; in [3], 280 nM; in data set [4], 6.4 nM; in data set [5], 189 nM; in [6], 12 nM; in data set [7], 153 nM. Moreover, the Kd in data set [8] came out at 5.3 nM; in [9] (setting [17]) it was 214 nM; in [10] it was 6.8 nM.

On to AUUAAACGUGA [IR-rpoA-A], for which the Kd in data set [5] (setting [17]) worked out at 409 nM; in data set [7] it was 175 nM; in data set [9] (setting [17]) it was 452 nM.

As to AUUAGACGUGA [Cy5-rpoA-G], the dissociation constant (Kd) was found to be 14 nM in data set [3], 315 nM in data set [5] (setting [17]), 127 nM in data set [7] and 183 nM in data set [9].

As to AUUAUACGUGA [IR-rpoA-U], the values for the dissociation constant Kd in data set [5] (setting [17]), in data set [7] and in data set [9] were 279 nM, 53.5 nM and 66.3 nM, respectively.

As to UUACACGUG [rpoA footprint (ITC)], the dissociation constant Kd in [11] amounted to 239 nM; in data set [12], 48 nM.

Regarding AUUACACGUG (ssRNA) [rpoA (FP)], the equilibrium dissociation constant (Kd) in data set [13] stood at 7.6 nM.

Regarding CAGCAACAGAAGCCCAAGCUCAUGGA (ssRNA) [Cy5-clpP (clpP1)], the binding result in data set [14] was “no binding”.

Take UUACACGUG (ssRNA) [rpoA footprint (ITC)]: the Kd in data set [15] was found to be 239 nM; in data set [16] it was 48 nM.

These data come from paper PMC8809517, “Cofactor-independent RNA editing by a synthetic S-type PPR protein”.
